Measured values as given in publication PMC7517352 (Frontiers in Microbiology, 2020).

Molecular target: T1, VapC21 toxin (Rv2757c) of the VapBC21 complex co-expressed from pET-Duet (M. tuberculosis, UniProt P9WF91 1-138)
T1 construct: also called VapC21 (in VapBC21 complex); not shown: His6, N-terminal, kept
T1 sequence: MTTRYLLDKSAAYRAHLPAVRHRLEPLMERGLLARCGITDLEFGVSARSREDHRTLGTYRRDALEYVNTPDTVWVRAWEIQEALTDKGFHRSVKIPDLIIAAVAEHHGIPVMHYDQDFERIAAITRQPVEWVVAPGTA
Assay: SEC-MALS
Conditions: both partners purified

B1: VapB21 antitoxin (Rv2758c) of the VapBC21 complex co-expressed from pET-Duet (natural protein)
chain: MHRGYALVVCSPGVTRTMIDIDDDLLARAAKELGTTTKKDTVHAALRAALRASAARSLMNRMAENATGTQDEALVNAMWRDGHPENTA
notes: also called VapB21 (in VapBC21 complex)
- stoichiometry N: 1 antitoxin per toxin (4:4)
